For one substance, Kd results are on record in PMC3432753.

For this test, the target named is Recombinant human endostatin (human) (UniProt P39060). Kind of test: SPR. Background: In SPR one partner is held on a chip, and binding of the other changes the refractive index at the surface.
Chain of UniProt P39060 (P39060 1572-1754): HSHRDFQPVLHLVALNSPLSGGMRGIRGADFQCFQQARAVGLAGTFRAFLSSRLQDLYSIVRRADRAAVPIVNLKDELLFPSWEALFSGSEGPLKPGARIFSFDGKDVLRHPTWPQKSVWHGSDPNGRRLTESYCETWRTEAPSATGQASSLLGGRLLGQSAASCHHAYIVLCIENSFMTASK

In the case of “α3β1 integrin (Millipore) (from UniProt P26006 33-1051; P05556 21-728) (complex)”, the Kd (commonly the concentration at which binding is half-saturated) was 9 nM.
